Test results as given in patent US20020197690.

Target: T1, 35S-labeled in vitro translated GID
T1 chain: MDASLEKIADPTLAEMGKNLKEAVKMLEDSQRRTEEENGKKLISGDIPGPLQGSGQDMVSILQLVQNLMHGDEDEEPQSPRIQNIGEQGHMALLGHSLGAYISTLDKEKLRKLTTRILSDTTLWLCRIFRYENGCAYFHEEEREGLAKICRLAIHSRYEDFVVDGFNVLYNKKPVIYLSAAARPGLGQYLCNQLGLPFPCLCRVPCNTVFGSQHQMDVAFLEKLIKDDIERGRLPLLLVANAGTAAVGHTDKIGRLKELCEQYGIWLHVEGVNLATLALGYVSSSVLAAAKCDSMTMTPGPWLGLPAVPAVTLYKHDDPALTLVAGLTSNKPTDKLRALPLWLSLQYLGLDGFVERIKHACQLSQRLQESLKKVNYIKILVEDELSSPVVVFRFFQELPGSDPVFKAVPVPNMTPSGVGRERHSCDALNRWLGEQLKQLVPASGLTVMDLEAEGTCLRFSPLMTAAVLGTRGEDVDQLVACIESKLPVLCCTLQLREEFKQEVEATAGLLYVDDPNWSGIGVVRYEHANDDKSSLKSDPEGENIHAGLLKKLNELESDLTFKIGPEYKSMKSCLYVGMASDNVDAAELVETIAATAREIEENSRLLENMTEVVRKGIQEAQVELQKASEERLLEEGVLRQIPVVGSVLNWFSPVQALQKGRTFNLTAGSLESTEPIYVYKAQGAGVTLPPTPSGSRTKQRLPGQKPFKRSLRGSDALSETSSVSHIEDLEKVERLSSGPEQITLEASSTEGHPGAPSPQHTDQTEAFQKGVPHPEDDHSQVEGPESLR

B1: recombinant caspase-3 (Pharmingen) (protein)
chain: SGISLDNSYKMDYPEMGLCIIINNKNFHKSTGMTSRSGTDVDAANLRETFRNLKYEVRNKNDLTREEIVELMRDVSKEDHSKRSSFVCVLLSHGEEGIIFGTNGPVDLKKITNFFRGDRCRSLTGKPKLFIIQACRGTELDCGIETDSGVDDDMACHKIPVEADFLYAYSTAPGYYSWRNSKDGSWFIQSLCAMLKQYADKLEFMHILTRVNRKVATEFESFSFDATFHAKKQIPCIVSMLTKELYFYH
How did the “in vitro caspase-3 assay: cleavage of 35S-labeled in vitro translated GID (SDS-PAGE, autoradiography)” value turn out when B1 was run?
Its value is “Increasing amounts of caspase-3 incubated with GID resulted in greater amounts of a cleavage product of approximately 58 kDa, which was not observed in the presence of incubation with buffer alone”.
